We go through 2 proteins from patent publication US5492821A, “Stabilized polyacrylic saccharide protein conjugates” (Cargill, Inc., priority 1991, dated 1996).

Substrate in data set [1]: C[C@H](NC(=O)CCC(=O)O)C(=O)N[C@@H](C)C(=O)N1CCC[C@H]1C(=O)N[C@@H](Cc1ccccc1)C(=O)Nc1ccc([N+](=O)[O-])cc1
Briefly: Km and kcat of enzyme, Table 1. In kind it is biochemical. As to conditions: other: 0.05M sodium phosphate buffer at pH 8 containing 10% methanol. The protocol: (§1) The yield of the active enzyme was determined by comparison of the relative activity of the native trypsin and the trypsin-polymer conjugate for N-succinyl-Ala-Ala-Pro-Phe p-nitroanilide as the substrate in 0.05M sodium phosphate buffer at pH 8 containing 10% methanol.
The procedure of EXAMPLE 8 (a) (i) was repeated in every essential detail except that BPN'-subtilisin was used instead of trypsin.

Substrate in data set [2]: C[C@H](NC(=O)CCC(=O)O)C(=O)N[C@@H](C)C(=O)N1CCC[C@H]1C(=O)N[C@@H](Cc1ccccc1)C(=O)Nc1ccc([N+](=O)[O-])cc1
Nature of the data set: Km and kcat of enzyme, Table 1. In kind it is biochemical. The note with it: other: 0.05M sodium phosphate buffer at pH 8 containing 10% methanol. The protocol:
as §1
The procedure of EXAMPLE 8 (a) (i) was repeated in every essential detail except that Carlsberg-subtilisin was used instead of trypsin.
This is another data set of the same source.

B1: BPN'-subtilisin (native) (Bacillus amyloliquefaciens) (protein)
chain: AQSVPYGVSQIKAPALHSQGYTGSNVKVAVIDSGIDSSHPDLKVAGGASMVPSETNPFQDNNSHGTHVAGTVAALNNSIGVLGVAPSASLYAVKVLGADGSGQYSWIINGIEWAIANNMDVINMSLGGPSGSAALKAAVDKAVASGVVVVAAAGNEGTSGSSSTVGYPGKYPSVIAVGAVDSSNQRASFSSVGPELDVMAPGVSIQSTLPGNKYGAYNGTSMASPHVAGAAALILSKHPNWTNTQVRSSLENTTTKLGDSFYYGKGLINVQAAAQ
A word on the Km: it is the substrate concentration at which the rate is half of its maximum. The term kcat denotes the maximal rate divided by the concentration of active sites. Consider B1, for which, in data set [1], the Km is 240 µM and the kcat stood at 83 s⁻¹.

B2: Carlsberg-subtilisin (native) (Bacillus licheniformis) (protein)
chain: AQTVPYGIPLIKADKVQAQGFKGANVKVAVLDTGIQASHPDLNVVGGASFVAGEAYNTDGNGHGTHVAGTVAALDNTTGVLGVAPSVSLYAVKVLNSSGSGSYSGIVSGIEWATTNGMDVINMSLGGASGSTAMKQAVDNAYAKGVVVVAAAGNSGSSGNTNTIGYPAKYDSVIAVGAVDSNSNRASFSSVGAELEVMAPGAGVYSTYPTNTYATLNGTSMASPHVAGAAALILSKHPNLSASQVRNRLSSTATYLGSSFYYGKGLINVEAAAQ
As for B2, in data set [2], the Michaelis-Menten constant (Km) turned out to be 251 µM and the kcat came out at 420 s⁻¹.
